Measured values taken from article PMC2175347 (Nucleic Acids Research, 2007).

Test system: HP1α
Test: Immunofluorescence co-localization with HP1α in COS-7 cells
Assay type: cell-based
Conditions: 48 h after transfection, Figure 6

B1: GFP-G9amut (protein, UniProt Q9Z148 1-1263, looked up, variant K233A K239A K243A)
chain: MRGLPRGRGLMRARGRGRAAPTGGRGRGRGGAHRGRGRPRSLLSLPRAQASWAPQLPAGLTGPPVPCLPSQGEAPAEMGALLLEKEPRGAAERVHSSLGDTPQSEETLPKANPDSLEPAGPSSPASVTVTVGDEGADTPVGAASLIGDEPESLEGDGGRIVLGHATKSFPSSPSKGGACPSRAKMSMTGAGKSPPSVQSLAMRLLSMPGAQGAATAGPEPSPATTAAQEGQPAVHRARATMSAPSNGQPPIPEKRPPEVQHFRMSDDMHLGKVTSDVAKRRKLNSGSLSEDLGSAGGSGDIILEKGEPRPLEEWETVVGDDFSLYYDAYSVDERVDSDSKSEVEALAEQLSEEEEEEEEEEEEEEEEEEEEEEEEEDEESGNQSDRSGSSGRRKAKKKWRKDSPWVKPSRKRRKREPPRAKEPRGVNGVGSSGPSEYMEVPLGSLELPSEGTLSPNHAGVSNDTSSLETERGFEELPLCSCRMEAPKIDRISERAGHKCMATESVDGELLGCNAAILKRETMRPSSRVALMVLCEAHRARMVKHHCCPGCGYFCTAGTFLECHPDFRVAHRFHKACVSQLNGMVFCPHCGEDASEAQEVTIPRGDGGTPPIGTAAPALPPLAHDAPGRADTSQPSARMRGHGEPRRPPCDPLADTIDSSGPSLTLPNGGCLSAVGLPPGPGREALEKALVIQESERRKKLRFHPRQLYLSVKQGELQKVILMLLDNLDPNFQSDQQSKRTPLHAAAQKGSVEICHVLLQAGANINAVDKQQRTPLMEAVVNNHLEVARYMVQLGGCVYSKEEDGSTCLHHAAKIGNLEMVSLLLSTGQVDVNAQDSGGWTPIIWAAEHKHIDVIRMLLTRGADVTLTDNEENICLHWASFTGSAAIAEVLLNAQCDLHAVNYHGDTPLHIAARESYHDCVLLFLSRGANPELRNKEGDTAWDLTPERSDVWFALQLNRKLRLGVGNRAVRTEKIICRDVARGYENVPIPCVNGVDGEPCPEDYKYISENCETSTMNIDRNITHLQHCTCVDDCSSSNCLCGQLSIRCWYDKDGRLLQEFNKIEPPLIFECNQACSCWRSCKNRVVQSGIKVRLQLYRTAKMGWGVRALQTIPQGTFICEYVGELISDAEADVREDDSYLFDLDNKDGEVYCIDARYYGNISRFINHLCDPNIIPVRVFMLHQDLRFPRIAFFSSRDIRTGEELGFDYGDRFWDIKSKYFTCQCGSEKCKHSAEAIALEQSRLARLDPHPELLPDLSSLPPINT
modifications: full-length GFP fusion
co-localization with HP1α: did not co-localize with HP1α
